B1: LINE1-mini (parent)
chain: GGCAGAGCUCAACACAGCGUGGCAAAGUGGCUGUGGCUAGACUGCC

The variants in the series derive from B1. The experiment in a line: self-cleavage, relative activity (ratio to wild type); higher = more cleavage; in vitro, sequencing; the parent is a self-cleaving ribozyme.
With GGCACAGCUCAACACAGCGUGGCAAAGUGGCUGUGGCGAGACUGCC, the self-cleavage worked out at 0.03.
GGCACAGCUCAACACAGCGUGGCAAAGUGGCUGUGGCCAGACUGCC: the self-cleavage worked out at 0.05.
With GGCACAGCUCAACACAGCGUGGCAAAGUGGCUGUGGCAAGACUGCC, the self-cleavage was 0.09.
As to GGCACAGCUCAACACAGCGUGGCAAAGUGGCAGUGGCUAGACUGCC, the self-cleavage was found to be 0.06.
With GGCACAGCUCAACACAGCGUGGCAAAGUGGCGGUGGCUAGACUGCC, the self-cleavage stood at 0.07.
With GGCACAGCUCAACACAGCGUGGCAAAGUGGCCGUGGCUAGACUGCC, the self-cleavage worked out at 0.1.
As to GGCAUAUCUCAACACAGCGUGGCAAAGUGGCUGUGGCUAGACUGCC, the self-cleavage was determined as 0.13.
As to GGCAUACCUCAACACAGCGUGGCAAAGUGGCUGUGGCUAGACUGCC, the self-cleavage turned out to be 0.11.
In the case of GGCAUAACUCAACACAGCGUGGCAAAGUGGCUGUGGCUAGACUGCC, the self-cleavage stood at 0.43.
As to GGCAUAGCUCAACACAGCGUGGCCAAGUGGCUGUGGCUAGACUGCC, the self-cleavage amounted to 0.08.
For the variant GGCAUAGCUCAACACAGCGUGGCUAAGUGGCUGUGGCUAGACUGCC, the self-cleavage came out at 0.08.
With GGCAUAGCUCAACACAGCGUGGCGAAGUGGCUGUGGCUAGACUGCC the figure was 0.19; with GGCAUAGCUCAACACAGCGUGGCAAAGUGGUUGUGGCUAGACUGCC, 0.06.
On to GGCAUAGCUCAACACAGCGUGGCAAAGUGGAUGUGGCUAGACUGCC, for which the self-cleavage was determined as 0.04.
For GGCAUAGCUCAACACAGCGUGGCAAAGUGGGUGUGGCUAGACUGCC, the self-cleavage worked out at 0.05.
For the variant GGCAUAGCUCAACACAGCGUGGCAAAGUGGCUGUGGUUAGACUGCC, the self-cleavage came out at 0.05.
With GGCAUAGCUCAACACAGCGUGGCAAAGUGGCUGUGGGUAGACUGCC, the self-cleavage stood at 0.07.
As to GGCAUAGCUCAACACAGCGUGGCAAAGUGGCUGUGGAUAGACUGCC, the self-cleavage was 0.06.
As to GGCAUAGCUCAACACUGCGUGGCAAAGUGGCUGUGGCUAGACUGCC, the self-cleavage was 0.06.
As to GGCAUAGCUCAACACGGCGUGGCAAAGUGGCUGUGGCUAGACUGCC, the self-cleavage was determined as 0.06.
For the variant GGCAUAGCUCAACACCGCGUGGCAAAGUGGCUGUGGCUAGACUGCC, the self-cleavage was determined as 0.03.
With GGCAUAGCUCAACACAGCGUGGCAAAGUGGCUGUGGCUAGAGUGCC the figure was 0.04; with GGCAUAGCUCAACACAGCGUGGCAAAGUGGCUGUGGCUAGAUUGCC, 0.08; with GGCAUAGCUCAACACAGCGUGGCAAAGUGGCUGUGGCUAGAAUGCC, 0.38.
The value for GGCACAGCUCAACACAGCGUGGCAAAGUGGCUGGGGCUAGACUGCC was 0.06; that for GGCACAGCUCAACACAGCGUGGCAAAGUGGCUGAGGCUAGACUGCC was 0.06.
In the case of GGCACAGCUCAACACAGCGUGGCAAAGUGGCUGCGGCUAGACUGCC, the self-cleavage stood at 0.06.
As to GGCAUAGCUCAACACAGCGUGGCAUAGUGGCUGUGGCUAGACUGCC, the self-cleavage was determined as 0.08.
The value for GGCAUAGCUCAACACAGCGUGGCACAGUGGCUGUGGCUAGACUGCC was 0.05; that for GGCAUAGCUCAACACAGCGUGGCAGAGUGGCUGUGGCUAGACUGCC was 0.12; that for GGCAUAGCUCAACACAGCGUAGCAAAGUGGCUGUGGCUAGACUGCC was 0.28.
For GGCACAGCUCAACACAGCGUGGCAAAGUGGCUGUGGCUAGACUUCC, the self-cleavage stood at 0.09.
With GGCACAGCUCAACACAGCGUGGCAAAGUGGCUGUGGCUAGACUCCC, the self-cleavage worked out at 0.04.
The value for GGCACAGCUCAACACAGCGUGGCAAAGUGGCUGUGGCUAGACUACC was 0.05; that for GGCACAGCGCAACACAGCGUGGCAAAGUGGCUGUGGCUAGACUGCC was 0.04.
On to GGCACAGCCCAACACAGCGUGGCAAAGUGGCUGUGGCUAGACUGCC, for which the self-cleavage came out at 0.04.
Regarding GGCACAGCACAACACAGCGUGGCAAAGUGGCUGUGGCUAGACUGCC, the self-cleavage stood at 0.12.
On to GGCAUAGCUCAACACAGUGUGGCAAAGUGGCUGUGGCUAGACUGCC, for which the self-cleavage was 0.1.
Consider GGCAUAGCUCAACACAGAGUGGCAAAGUGGCUGUGGCUAGACUGCC, for which the self-cleavage is 0.07.
Consider GGCAUAGCUCAACACAGGGUGGCAAAGUGGCUGUGGCUAGACUGCC, for which the self-cleavage worked out at 0.06.
For the variant GGCACAGCUCAACACAGCGUGGCAAAGUGGCUGUGUCUAGACUGCC, the self-cleavage was 0.04.
As to GGCACAGCUCAACACAGCGUGGCAAAGUGGCUGUGACUAGACUGCC, the self-cleavage was found to be 0.06.
With GGCACAGCUCAACACAGCGUGGCAAAGUGGCUGUGCCUAGACUGCC, the self-cleavage came to 0.06.
Consider GGCAUAGCUCAACACAUCGUGGCAAAGUGGCUGUGGCUAGACUGCC, for which the self-cleavage amounted to 0.05.
With GGCAUAGCUCAACACACCGUGGCAAAGUGGCUGUGGCUAGACUGCC the figure was 0.06.
Consider GGCAUAGCUCAACACAACGUGGCAAAGUGGCUGUGGCUAGACUGCC, for which the self-cleavage was determined as 0.1.
With GGCAUAGCUCAACACAGCGUGGCAAAGUGGCUGUGGCUUGACUGCC, the self-cleavage stood at 0.11.
With GGCAUAGCUCAACACAGCGUGGCAAAGUGGCUGUGGCUGGACUGCC the figure was 0.04.
For GGCAUAGCUCAACACAGCGUGGCAAAGUGGCUGUGGCUCGACUGCC, the self-cleavage was determined as 0.06.
The value for GGCAUGGCUCAACACAGCGUGGCAAAGUGGCUGUGGCUAGACUGCC was 0.07; that for GGCAUCGCUCAACACAGCGUGGCAAAGUGGCUGUGGCUAGACUGCC was 0.16.
Consider GGCAUUGCUCAACACAGCGUGGCAAAGUGGCUGUGGCUAGACUGCC, for which the self-cleavage worked out at 0.16.
For GGCAUAGCUCAACACAGCGUGGCAAAGUGGCUGUGGCUAGACUGCC, the self-cleavage is 0.14.
With GGCAUAGCUCAACUCAGCGUGGCAAAGUGGCUGUGGCUAGACUGCC the figure was 0.07; with GGCAUAGCUCAACGCAGCGUGGCAAAGUGGCUGUGGCUAGACUGCC, 0.06.
With GGCAUAGCUCAACCCAGCGUGGCAAAGUGGCUGUGGCUAGACUGCC the figure was 0.06; with GGCAUAGCUCAACACAGCGUGGUAAAGUGGCUGUGGCUAGACUGCC, 0.12.
For GGCAUAGCUCAACACAGCGUGGAAAAGUGGCUGUGGCUAGACUGCC, the self-cleavage is 0.11.
The value for GGCAUAGCUCAACACAGCGUGGGAAAGUGGCUGUGGCUAGACUGCC was 0.12; that for GGCACAGCUCAACACAGCGUGGCAAAGUGGCUGUGGCUACACUGCC was 0.1; that for GGCACAGCUCAACACAGCGUGGCAAAGUGGCUGUGGCUAAACUGCC was 0.1.
With GGCACAGCUCAACACAGCGUGGCAAAGUGGCUGUGGCUAUACUGCC, the self-cleavage was 0.1.
On to GGCACAGCUCAACACAGCGUGGCAAAGGGGCUGUGGCUAGACUGCC, for which the self-cleavage was found to be 0.02.
With GGCACAGCUCAACACAGCGUGGCAAAGCGGCUGUGGCUAGACUGCC the figure was 0.05; with GGCACAGCUCAACACAGCGUGGCAAAGAGGCUGUGGCUAGACUGCC, 0.1.
The value for GGCAUAGCUCAACACAGCGUGGCAAAGUGGCUGUGGCUAGCCUGCC was 0.07; that for GGCAUAGCUCAACACAGCGUGGCAAAGUGGCUGUGGCUAGGCUGCC was 0.06; that for GGCAUAGCUCAACACAGCGUGGCAAAGUGGCUGUGGCUAGUCUGCC was 0.08.
With GGCAUAGCUCUACACAGCGUGGCAAAGUGGCUGUGGCUAGACUGCC, the self-cleavage is 0.04.
As for GGCAUAGCUCCACACAGCGUGGCAAAGUGGCUGUGGCUAGACUGCC, the self-cleavage was 0.03.
The value for GGCAUAGCUCGACACAGCGUGGCAAAGUGGCUGUGGCUAGACUGCC was 0.02; that for GGCAUAGCUCAACACAGCCUGGCAAAGUGGCUGUGGCUAGACUGCC was 0.05; that for GGCAUAGCUCAACACAGCAUGGCAAAGUGGCUGUGGCUAGACUGCC was 0.33.
For the variant GGCAUAGCUCAACACAGCUUGGCAAAGUGGCUGUGGCUAGACUGCC, the self-cleavage was 0.1.
With GGCAUAGCUCAACACAGCGUGGCAAAGUGGCUGUGGCUAGACUGUC the figure was 0.08; with GGCAUAGCUCAACACAGCGUGGCAAAGUGGCUGUGGCUAGACUGGC, 0.08.
With GGCAUAGCUCAACACAGCGUGGCAAAGUGGCUGUGGCUAGACUGAC, the self-cleavage was 0.08.
On to GGCAUAGUUCAACACAGCGUGGCAAAGUGGCUGUGGCUAGACUGCC, for which the self-cleavage was 0.26.
The value for GGCAUAGGUCAACACAGCGUGGCAAAGUGGCUGUGGCUAGACUGCC was 0.14.
Consider GGCAUAGAUCAACACAGCGUGGCAAAGUGGCUGUGGCUAGACUGCC, for which the self-cleavage turned out to be 0.53.
Turning to GGCAUAGCUCAAUACAGCGUGGCAAAGUGGCUGUGGCUAGACUGCC, the self-cleavage came to 0.11.
The value for GGCAUAGCUCAAAACAGCGUGGCAAAGUGGCUGUGGCUAGACUGCC was 0.09; that for GGCAUAGCUCAAGACAGCGUGGCAAAGUGGCUGUGGCUAGACUGCC was 0.23.
For GGCAUAGCUAAACACAGCGUGGCAAAGUGGCUGUGGCUAGACUGCC, the self-cleavage came to 0.03.
GGCAUAGCUUAACACAGCGUGGCAAAGUGGCUGUGGCUAGACUGCC: the self-cleavage is 0.06.
As to GGCAUAGCUGAACACAGCGUGGCAAAGUGGCUGUGGCUAGACUGCC, the self-cleavage worked out at 0.03.
For GGCAUAGCUCACCACAGCGUGGCAAAGUGGCUGUGGCUAGACUGCC, the self-cleavage is 0.04.
Consider GGCAUAGCUCAUCACAGCGUGGCAAAGUGGCUGUGGCUAGACUGCC, for which the self-cleavage worked out at 0.06.
GGCAUAGCUCAGCACAGCGUGGCAAAGUGGCUGUGGCUAGACUGCC: the self-cleavage is 0.04.
With GGCACAGCUCAACACAGCGUGGCAAAGUGGCUGUGGCUAGACGGCC, the self-cleavage is 0.13.
As for GGCACAGCUCAACACAGCGUGGCAAAGUGGCUGUGGCUAGACAGCC, the self-cleavage was determined as 0.05.
Consider GGCACAGCUCAACACAGCGUGGCAAAGUGGCUGUGGCUAGACCGCC, for which the self-cleavage was determined as 0.04.
On to GGCAUAGCUCAACAAAGCGUGGCAAAGUGGCUGUGGCUAGACUGCC, for which the self-cleavage was 0.05.
Turning to GGCAUAGCUCAACAUAGCGUGGCAAAGUGGCUGUGGCUAGACUGCC, the self-cleavage was 0.08.
With GGCAUAGCUCAACAGAGCGUGGCAAAGUGGCUGUGGCUAGACUGCC the figure was 0.09; with GGCACAGCUCAACACAGCGUGGCAAAGUGGCUAUGGCUAGACUGCC, 0.09; with GGCACAGCUCAACACAGCGUGGCAAAGUGGCUUUGGCUAGACUGCC, 0.06.
With GGCACAGCUCAACACAGCGUGGCAAAGUGGCUCUGGCUAGACUGCC, the self-cleavage was 0.03.
Take GGCAUAGCUCAACACAGCGUGGCAAUGUGGCUGUGGCUAGACUGCC: the self-cleavage was determined as 0.09.
Turning to GGCAUAGCUCAACACAGCGUGGCAAGGUGGCUGUGGCUAGACUGCC, the self-cleavage turned out to be 0.12.
With GGCAUAGCUCAACACAGCGUGGCAACGUGGCUGUGGCUAGACUGCC the figure was 0.11; with GGCAUAGCUCAACACAGCGUGGCAAAGUGGCUGUGGCUAGACUGCG, 0.13; with GGCAUAGCUCAACACAGCGUGGCAAAGUGGCUGUGGCUAGACUGCA, 0.11.
With GGCAUAGCUCAACACAGCGUGGCAAAGUGGCUGUGGCUAGACUGCU, the self-cleavage is 0.07.
As to GGCACAGCUCAACACAGCGUGGCAAAGUGGCUGUCGCUAGACUGCC, the self-cleavage is 0.06.
Regarding GGCACAGCUCAACACAGCGUGGCAAAGUGGCUGUAGCUAGACUGCC, the self-cleavage was 0.1.
As to GGCACAGCUCAACACAGCGUGGCAAAGUGGCUGUUGCUAGACUGCC, the self-cleavage is 0.07.
The value for GGCACAGCUCAACACAGCGUGGCAAAGUGUCUGUGGCUAGACUGCC was 0.17; that for GGCACAGCUCAACACAGCGUGGCAAAGUGCCUGUGGCUAGACUGCC was 0.07.
Regarding GGCACAGCUCAACACAGCGAGGCAAAGUGGCUGUGGCUAGACUGCC, the self-cleavage stood at 0.04.
Consider GGCACAGCUCAACACAGCGCGGCAAAGUGGCUGUGGCUAGACUGCC, for which the self-cleavage is 0.18.
The value for GGCACAGCUCAACACAGCGGGGCAAAGUGGCUGUGGCUAGACUGCC was 0.06.

The record behind these values is the RNAGym collection of RNA variant scans (doi:10.7554/elife.90254).
